{"source": "patent US5547843", "test_system": "E. coli single-stranded DNA-binding protein (SSB) (Escherichia coli)", "conditions": "saturating ratio inferred from priming titration (mass ratio SSB:DNA about 2.5); 40 mM Tris-Cl pH 7.5, 50 mM NaCl, 10 mM MgCl2, 0 C; indirect functional …", "data": [{"substance": "M13 single-stranded viral DNA", "values": [{"measurement": "binding (nt per SSB monomer)", "value": 22}]}]}
